Assay results as given in US20200369776A1.

Target: full-length monkey CD137 on the cell surface (cynomolgus monkey)
Assay: flow cytometry, PMA + ionomycin activated cynomolgus T cells, antibody at 100 nM (Example 4d), Alexa Fluor 647 anti-human Fc; SSC-H against antibody binding

full-length monkey CD137 on the cell surface (cynomolgus monkey), sequence (Q07011 other isoform, or with tags, fused parts or gaps): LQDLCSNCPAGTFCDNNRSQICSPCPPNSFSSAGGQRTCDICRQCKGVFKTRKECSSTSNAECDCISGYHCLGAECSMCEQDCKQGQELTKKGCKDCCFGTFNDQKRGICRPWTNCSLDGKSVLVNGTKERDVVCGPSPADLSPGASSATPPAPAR

- percent of cells in the lower right (antibody-positive) quadrant: 1.5%
Substance: human IgG4 isotype control antibody
